Source: patent US20210017281A1 (IMMUNEXT, published 2021)

Target: T1, human VISTA (human, UniProt Q9H7M9 33-194, limits assumed)
T1 construct: The ELISA text says only recombinant VISTA; also called recombinant VISTA
Assay: method not stated (Table 1, column Kd, M)

Binder	Kd
INX909 | VSTB67 (antibody, V domains shown) VH: QVQLVQSGAEVKKPGASVKVSCKASDYIFSSYWIQWVRQAPGQGLEWMGEIFPGSGGTNYNEKFKGRVTMTRDTSTSTVYMELSSLRSEDTAVYYCARAIYYDYDMYYFDSWGQGTTVTVSS VL: DIQMTQSPSSLSASVGDRVTITCRASQDISSYLNWYQQKPGKVPKLLIYYTSRLHSGVPSRFSGSGSGTDFTLTISSLQPEDVATYYCQHVNTLPWTFGQGTKLEIKR	0.0629 nM
INX913 | VSTB85 (antibody, V domains shown) VH: QVQLVQSGAEVKKPGASVKVSCKASGYTFTDYAMHWVRQAPGQGLEWMGVIDTYYGNTNYNQKFKGRVTMTRDTSISTAYMELSRLRSDDTAVYYCARGGGDALDYWGQGTTVTVSS VL: DIQMTQSPSSLSASVGDRVTITCKASQSVSNDVVWYQQKPGKAPKLLIYYASNRYIGVPSRFSGSGSGTDFTFTISSLQPEDIATYYCQQGYTSLRTFGQGTKLEIKR	0.0378 nM
INX910 | VSTB73 (antibody, V domains shown) VH: QVQLVQSGAEVKKPGASVKVSCKASGYTFTDYVISWVRQAPGQGLEWMGEIYPGSGNTYYYEKFKGRVTMTRDTSTSTVYMELSSLRSEDTAVYYCARVLVSVMDYWGQGTLVTVSS VL: EIVLTQSPDFQSVTPKEKVTITCSASSSINYITWYQQKPDQSPKLLIKDTSKLASGVPSRFSGSGSGTDFTLTINSLEAEDAATYYCHQRSSYPWTFGQGTRLEIKR	2.26 nM
VSTB49 (antibody, V domains shown) VH: QVQLVQSGAEVKKPGASVKVSCKASGYTFPSHTIHWVRQAPGQRLEWMGSIYPFIDSTIYNQKFKDRVTITRDTSASTAYMELSSLRSEDTAVYYCARGIRGYTMDYWGQGTLVTVSS VL: DVVMTQSPLSLPVTLGQPASISCRASESVDNYGLSFMNWFQQRPGQSPRRLIYGASNQGSGVPDRFSGSGSGTDFTLKISRVEAEDVGVYYCQQSKEVPYTFGQGTKLEIKR	0.507 nM
INX912 | VSTB84 (antibody, V domains shown) VH: QVQLVQSGAEVKKPGASVKVSCKASGYTFTSYWMHWVRQAPGQGLEWMGYINPSTGYPGYNQKFKDRVTMTRDTSTSTVYMELSSLRSEDTAVYYCARSYYDYDGGAWFAYWGQGTTVTVSS VL: DIVMTQTPLSLSVTPGQPASISCRASESVEYYGTSLMQWYLQKPGQPPQLLIYAASNVESGVPDRFSGSGSGTDFTLKISRVEAEDVGVYYCQQSRKVPSTFGQGTKLEIKR	2.03 nM
INX904 | VSTB103 (antibody, V domains shown, INX name = the VSTB variable regions with human IgG2 constant regions) VH: EVQLVQSGAEVKKPGESLKISCKGSGYSFTSYWIGWVRQMPGKGLEWMGIIYPGDSDTRYSPSFQGQVTISADKSISTAYLQWSSLKASDTAMYYCARDDALYGGYYLDYWGQGTLVTVSS VL: not shown	0.636 nM
VSTB51 (antibody, V domains shown) VH: EVQLVESGGGLVQPGGSLRLSCAASGFTFSSYTMSWVRQAPGKGLEWVATISNSGSYTYYLDSVKGRFTISRDNAKNSLYLQMNSLRAEDTAVYYCARDTVLSPFDYWGQGTTVTVSS VL: EIVLTQSPDFQSVTPKEKVTITCSATSSISYMHWYQQKPDQSPKLLIKDTSELASGVPSRFSGSGSGTDFTLTINSLEAEDAATYYCHQRSSFTFGQGTKLEIKR	0.104 nM
INX919 | VSTB115 (antibody, V domains shown) VH: QVQLVQSGAEVKKPGSSVKVSCKASGGTFSSYAISWVRQAPGQGLEWMGGIIPIFGTANYAQKFQGRVTITADESTSTAYMELSSLRSEDTAVYYCARSSYGWSYEFDYWGQGTLVTVSS VL: DIQMTQSPSSLSASVGDRVTITCRASQSIRTYLNWYQQKPGKAPKLLIYAASSLQSGVPSRFSGSGSGTDFTLTISSLQPEDFATYYCQQAYSNPITFGQGTKVEIKR	0.145 nM
VSTB114 (antibody, V domains shown) VH: QVQLVQSGAEVKKPGSSVKVSCKASGGTFSSYAISWVRQAPGQGLEWMGGIIPIFGTANYAQKFQGRVTITADESTSTAYMELSSLRSEDTAVYYCARHSIGWVAELDYWGQGTLVTVSS VL: DIQMTQSPSSLSASVGDRVTITCRASQSIATSLNWYQQKPGKAPKLLIYYASSLQSGVPSRFSGSGSGTDFTLTISSLQPEDFATYYCQQGAYYPLTFGQGTKVEIKR	0.152 nM
VSTB111 (antibody, V domains shown) VH: QVQLVQSGAEVKKPGSSVKVSCKASGGTFSSYAISWVRQAPGQGLEWMGGIIPIFGTANYAQKFQGRVTITADESTSTAYMELSSLRSEDTAVYYCARSSYGWSYEFDYWGQGTLVTVSS VL: DIQMTQSPSSLSASVGDRVTITCRASQSINTDLNWYQQKPGKAPKLLIYAASSLQSGVPSRFSGSGSGTDFTLTISSLQPEDFATYYCQQNRGSPITFGQGTKVEIKR	0.171 nM
VSTB108 (antibody, V domains shown) VH: QVQLVQSGAEVKKPGSSVKVSCKASGGTFSSYAISWVRQAPGQGLEWMGGIIPIFGTANYAQKFQGRVTITADESTSTAYMELSSLRSEDTAVYYCARNTFGWSGELDYWGQGTLVTVSS VL: DIQMTQSPSSLSASVGDRVTITCRASQSISNRLNWYQQKPGKAPKLLIYSASSLQSGVPSRFSGSGSGTDFTLTISSLQPEDFATYYCQQNHDNPITFGQGTKVEIKR	0.494 nM
INX917 | VSTB110 (antibody, V domains shown) VH: QVQLVQSGAEVKKPGSSVKVSCKASGGTFSSYAISWVRQAPGQGLEWMGGIIPIFGTANYAQKFQGRVTITADESTSTAYMELSSLRSEDTAVYYCARHSIGWVAELDYWGQGTLVTVSS VL: DIQMTQSPSSLSASVGDRVTITCRASQSINTDLNWYQQKPGKAPKLLIYAASSLQSGVPSRFSGSGSGTDFTLTISSLQPEDFATYYCQQGASDPITFGQGTKVEIKR	0.202 nM
INX915 | VSTB106 (antibody, V domains shown) VH: QVQLVQSGAEVKKPGSSVKVSCKASGGTFSSYAISWVRQAPGQGLEWMGGIIPIFGTANYAQKFQGRVTITADESTSTAYMELSSLRSEDTAVYYCARSSYGWSYEFDYWGQGTLVTVSS VL: DIQMTQSPSSLSASVGDRVTITCRASQSIRTDLNWYQQKPGKAPKLLIYSASSLQSGVPSRFSGSGSGTDFTLTISSLQPEDFATYYCQQNERTPITFGQGTKVEIKR	0.167 nM
VSTB109 (antibody, V domains shown) VH: QVQLVQSGAEVKKPGSSVKVSCKASGGTFSSYAISWVRQAPGQGLEWMGGIIPIFGTANYAQKFQGRVTITADESTSTAYMELSSLRSEDTAVYYCARSSYGWSYEFDYWGQGTLVTVSS VL: DIQMTQSPSSLSASVGDRVTITCRASQSIATYLNWYQQKPGKAPKLLIYAASSLQSGVPSRFSGSGSGTDFTLTISSLQPEDFATYYCQQNHNRPITFGQGTKVEIKR	0.102 nM
VSTB105 (antibody, V domains shown) VH: QVQLVQSGAEVKKPGSSVKVSCKASGGTFSSYAISWVRQAPGQGLEWMGGIIPIFGTANYAQKFQGRVTITADESTSTAYMELSSLRSEDTAVYYCARSSYGWSYEFDYWGQGTLVTVSS VL: DIQMTQSPSSLSASVGDRVTITCRASQSIATNLNWYQQKPGKAPKLLIYAASSLQSGVPSRFSGSGSGTDFTLTISSLQPEDFATYYCQQNDDRPITFGQGTKVEIKR	0.115 nM
INX916 | VSTB107 (antibody, V domains shown) VH: QVQLVQSGAEVKKPGSSVKVSCKASGGTFSSYAISWVRQAPGQGLEWMGGIIPIFGTANYAQKFQGRVTITADESTSTAYMELSSLRSEDTAVYYCARSSYGWSYEFDYWGQGTLVTVSS VL: DIQMTQSPSSLSASVGDRVTITCRASQSINNDLNWYQQKPGKAPKLLIYAASSLQSGVPSRFSGSGSGTDFTLTISSLQPEDFATYYCQQNRATPITFGQGTKVEIKR	0.089 nM
VSTB116 (antibody, V domains shown) VH: QVQLVQSGAEVKKPGSSVKVSCKASGGTFSSYAISWVRQAPGQGLEWMGGIIPIFGTANYAQKFQGRVTITADESTSTAYMELSSLRSEDTAVYYCARSSYGWSYEFDYWGQGTLVTVSS VL: DIQMTQSPSSLSASVGDRVTITCRASQSINTNLNWYQQKPGKAPKLLIYAASSLQSGVPSRFSGSGSGTDFTLTISSLQPEDFATYYCQQARDTPITFGQGTKVEIKR	0.213 nM
INX918 | VSTB113 (antibody, V domains shown) VH: QVQLVQSGAEVKKPGSSVKVSCKASGGTFSSYAISWVRQAPGQGLEWMGGIIPIFGTANYAQKFQGRVTITADESTSTAYMELSSLRSEDTAVYYCARHSIGWVAELDYWGQGTLVTVSS VL: DIQMTQSPSSLSASVGDRVTITCRASQSIATDLNWYQQKPGKAPKLLIYAASSLQSGVPSRFSGSGSGTDFTLTISSLQPEDFATYYCQQAHWYPLTFGQGTKVEIKR	0.0433 nM
INX903 | VSTB95 (antibody, V domains shown, INX903 = VSTB95 variable regions with wild-type human IgG2 constant regions) VH: EVQLVESGGGLVQPGGSLRLSCAASGFTFRNYGMSWVRQAPGKGLEWVASIISGGSYTYYPDSVKGRFTISRDNAKNSLYLQMNSLRAEDTAVYYCARIYDHDGDYYAMDYWGQGTTVTVSS VL: DIVMTQSPLSLPVTPGEPASISCRSSQSIVHSNGNTYLEWYLQKPGQSPQLLIYKVSNRFSGVPDRFSGSGSGTDFTLKISRVEAEDVGVYYCFQGSHVPWTFGQGTKLEIK	0.126 nM
INX905 | VSTB53 (antibody, V domains shown, INX name = the VSTB variable regions with human IgG2 constant regions) VH: QVQLVQSGAEVKKPGASVKVSCKASGYTFTHYTIHWVRQAPGQGLEWMGYIIPSSGYSEYNQKFKDRVTMTRDTSTSTVYMELSSLRSEDTAVYYCARGAYDDYYDYYAMDYWGQGTLVTVSS VL: DIVMTQSPLSLPVTPGEPASISCRSSQTIVHSNGNTYLEWYLQKPGQSPQLLIYKVSNRFSGVPDRFSGSGSGTDFTLKISRVEAEDVGVYYCFQASHVPWTFGQGTKLEIK	0.0264 nM
INX911 | VSTB76 (antibody, V domains shown) VH: QVQLVQSGAEVKKPGASVKVSCKASGYTFTDYWINWVRQAPGQGLEWMGNIYPSHSYTNYNQEFKDRVTMTRDTSTSTVYMELSSLRSEDTAVYYCARGGYRYPYYAMDYWGQGTTVTVSS VL: AIQLTQSPSSLSASVGDRVTITCGASENIYGALNWYQQKPGKAPKLLIYGATNLADGVPSRFSGSGSGTDFTLTISSLQPEDFATYYCQNVLSTPYTFGQGTKLEIKR	1.31 nM
VSTB100 (antibody, V domains shown) VH: EVQLVQSGAEVKKPGESLKISCKGSGYSFTSYWIGWVRQMPGKGLEWMGIIYPGDSDTRYSPSFQGQVTISADKSISTAYLQWSSLKASDTAMYYCARDVSSFYGYSPMFDYWGQGTLVTVSS VL: EIVLTQSPATLSLSPGERATLSCRASQSVSSYLAWYQQKPGQAPRLLIYDASNRATGIPARFSGSGSGTDFTLTISSLEPEDFAVYYCQQRSNWPLTFGQGTKVEIKR	1.48 nM
VSTB104 (antibody, V domains shown) VH: EVQLVQSGAEVKKPGESLKISCKGSGYSFTSYWIGWVRQMPGKGLEWMGIIYPGDSDTRYSPSFQGQVTISADKSISTAYLQWSSLKASDTAMYYCARDANSFYSAASIFDYWGQGTLVTVSS VL: not shown	0.675 nM
